What was measured:
[1] = target: BTV1 VP5 H384-6A triple mutant, S-tagged recombinant protein (Bluetongue virus serotype 1 (BTV1)); test: SDS-PAGE without reduction and heating, Western blot
[2] = target: BTV1 VP5 H385A mutant, S-tagged recombinant protein (Bluetongue virus serotype 1 (BTV1)); test: as above
[3] = target: BTV1 VP5 anchoring domain (ANC) polypeptide, His-tagged (Bluetongue virus serotype 1 (BTV1)); test: SDS-PAGE without reduction and heating, Coomassie staining
[4] = target: BTV1 VP5, wild-type, S-tagged recombinant protein (Bluetongue virus serotype 1 (BTV1)); test: SDS-PAGE without reduction and heating, Western blot

BTV1 VP5 H384-6A triple mutant, S-tagged recombinant protein (natural protein)
percent trimer [1]: 25%
stoichiometry N [1]: 3

BTV1 VP5 H385A mutant, S-tagged recombinant protein (natural protein)
percent trimer [2]: 25%
stoichiometry N [2]: 3

BTV1 VP5 anchoring domain (ANC) polypeptide, His-tagged (domain or fragment)
percent trimer [3]: 30%
stoichiometry N [3]: 3

BTV1 VP5, wild-type, S-tagged recombinant protein (natural protein)
percent trimer [4]: 25%
stoichiometry N [4]: 3
